This assay deals with T1, AIMP1 protein (SEQ ID NO: 1) consisting of 312 amino acids (Homo sapiens (Human), UniProt Q12904 1-312).
T1 construct: also called purified AIMP1 protein; AIMP1 protein antigen
T1 sequence: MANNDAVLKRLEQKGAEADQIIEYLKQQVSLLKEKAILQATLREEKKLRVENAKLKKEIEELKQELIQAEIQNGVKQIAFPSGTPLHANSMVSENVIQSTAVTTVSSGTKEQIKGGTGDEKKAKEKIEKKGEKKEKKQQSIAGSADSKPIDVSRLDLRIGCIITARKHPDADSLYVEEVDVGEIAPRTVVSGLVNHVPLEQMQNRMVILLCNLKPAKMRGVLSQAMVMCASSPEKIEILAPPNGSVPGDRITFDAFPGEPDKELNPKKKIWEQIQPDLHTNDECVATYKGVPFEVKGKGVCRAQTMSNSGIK
Briefly: purified GST-gp96 fragments incubated with AIMP1, Western blot with anti-AIMP1 antibody. On the procedure:
The purified GST-gp96 fragments were cultured with AIMP1 and analyzed by Western blot using an anti-AIMP1 antibody, and the analysis results are shown in FIG. 16.
A general note: In western blotting, separated proteins are transferred to a membrane and probed.

B1: GST-gp96-(699-799) (other)
chain: RRIKEDEDDKTVLDLAVVLFETATLRSGYLLPDTKAYGDRIERMLRLSLNIDPDAKVEEEPEEEPEETAEDTTEDTEQDEDEEMDVGTDEEEETAKESTAE
notes: GST-tag fusion purified on GSH agarose; also called domain involved in oligomerization; not shown: GST tag encoded by the pGEX4T3 vector (Amersham Biosciences)
On to B1, for which the binding result was “binds”.

These data come from patent publication US20100138941A1 (IMAGENE, published 2010).
